# Data published in publication PMC4215182.
# Columns and labels:
# [1] = target: Flag-CPSF30 (baculovirus) (UniProt O95639-2 1-244); experiment: UV cross-linking
# [2] = target: Flag-CPSF30 full length (UniProt O95639-2 1-244); experiment: UV cross-linking
# [3] = target: CPSF complex (CPSF73-3xFlag immunopurified) (human? (HEK293), UniProt Q10570;Q9C0J8;Q9P2I0;Q9UKF6;Q6UN15;O95639;Q92797 …); experiment: EMSA
# [4] = target: CPSF complex with HA-CPSF30 full length (human? (HEK293), UniProt Q10570;Q9C0J8;Q9P2I0;Q9UKF6;Q6UN15;O95639-2;Q92797 …); experiment: UV cross-linking
# [5] = target: T1, CPSF30 (within CPSF complex) (human? (HEK293), UniProt O95639 1-269); experiment: UV cross-linking
# [6] = target: T2, Wdr33 (within CPSF complex) (human? (HEK293), UniProt Q9C0J8 1-1336); experiment: UV cross-linking
# T2 sequence: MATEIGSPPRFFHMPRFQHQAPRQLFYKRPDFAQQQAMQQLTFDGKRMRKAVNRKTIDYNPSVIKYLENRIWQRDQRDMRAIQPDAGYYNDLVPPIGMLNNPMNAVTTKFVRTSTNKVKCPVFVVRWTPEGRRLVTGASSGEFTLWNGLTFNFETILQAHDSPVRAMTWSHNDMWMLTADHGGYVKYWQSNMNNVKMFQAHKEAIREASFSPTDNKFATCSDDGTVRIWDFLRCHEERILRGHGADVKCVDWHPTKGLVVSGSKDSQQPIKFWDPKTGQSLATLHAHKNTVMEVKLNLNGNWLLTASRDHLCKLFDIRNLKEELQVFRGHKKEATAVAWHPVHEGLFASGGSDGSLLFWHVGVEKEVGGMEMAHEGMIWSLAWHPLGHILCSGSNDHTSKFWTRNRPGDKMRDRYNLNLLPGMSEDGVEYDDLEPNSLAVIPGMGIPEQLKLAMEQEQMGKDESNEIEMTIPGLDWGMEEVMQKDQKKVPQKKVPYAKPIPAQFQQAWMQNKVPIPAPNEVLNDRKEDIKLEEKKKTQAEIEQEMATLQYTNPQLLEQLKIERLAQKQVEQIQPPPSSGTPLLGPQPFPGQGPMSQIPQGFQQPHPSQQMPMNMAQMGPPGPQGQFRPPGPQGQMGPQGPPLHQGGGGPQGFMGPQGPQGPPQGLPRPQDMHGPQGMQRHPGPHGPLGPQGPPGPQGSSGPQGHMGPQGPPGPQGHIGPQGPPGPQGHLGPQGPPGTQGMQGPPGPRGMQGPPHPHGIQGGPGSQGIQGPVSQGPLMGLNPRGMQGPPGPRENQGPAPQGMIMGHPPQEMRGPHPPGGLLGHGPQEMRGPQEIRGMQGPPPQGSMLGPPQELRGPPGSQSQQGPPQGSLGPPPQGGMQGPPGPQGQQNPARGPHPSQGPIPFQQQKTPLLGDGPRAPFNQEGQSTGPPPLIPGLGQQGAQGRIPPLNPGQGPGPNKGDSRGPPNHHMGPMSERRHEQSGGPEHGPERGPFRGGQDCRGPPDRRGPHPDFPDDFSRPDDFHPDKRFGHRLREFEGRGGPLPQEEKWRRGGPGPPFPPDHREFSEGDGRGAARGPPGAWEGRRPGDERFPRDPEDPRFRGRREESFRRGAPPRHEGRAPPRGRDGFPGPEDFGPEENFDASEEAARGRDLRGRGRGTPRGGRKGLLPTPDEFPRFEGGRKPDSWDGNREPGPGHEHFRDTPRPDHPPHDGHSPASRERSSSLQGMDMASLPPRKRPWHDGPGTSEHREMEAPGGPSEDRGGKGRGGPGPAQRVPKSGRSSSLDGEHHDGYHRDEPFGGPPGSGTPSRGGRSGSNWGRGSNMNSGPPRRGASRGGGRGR
# [7] = target: T1, CPSF30 (within CPSF complex); experiment: UV cross-linking, RNase, IP
# [8] = target: T2, Wdr33 (within CPSF complex); experiment: UV cross-linking, RNase, IP
# [9] = target: T3, Fip1 (within CPSF complex) (human? (HEK293), UniProt Q6UN15 1-594); experiment: UV cross-linking, RNase I, IP
# T3 sequence: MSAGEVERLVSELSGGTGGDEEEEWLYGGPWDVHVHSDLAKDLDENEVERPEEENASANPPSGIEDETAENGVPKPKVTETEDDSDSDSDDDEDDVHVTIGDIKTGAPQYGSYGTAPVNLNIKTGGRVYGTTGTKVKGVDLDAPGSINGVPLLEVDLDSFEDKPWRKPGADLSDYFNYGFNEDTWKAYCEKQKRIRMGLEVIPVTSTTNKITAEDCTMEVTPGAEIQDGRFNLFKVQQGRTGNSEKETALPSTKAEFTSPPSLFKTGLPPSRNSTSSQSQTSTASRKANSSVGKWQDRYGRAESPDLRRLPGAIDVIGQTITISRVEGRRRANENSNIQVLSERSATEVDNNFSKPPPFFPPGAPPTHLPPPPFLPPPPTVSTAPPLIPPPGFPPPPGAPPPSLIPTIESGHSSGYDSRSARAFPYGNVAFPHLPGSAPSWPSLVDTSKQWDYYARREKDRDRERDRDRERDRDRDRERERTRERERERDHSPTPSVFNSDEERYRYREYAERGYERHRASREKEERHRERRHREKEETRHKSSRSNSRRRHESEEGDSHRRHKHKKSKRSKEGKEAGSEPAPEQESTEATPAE
binder,measurement,setting,value
CUGCAAUAAACAAGUUAA (ssRNA) [SVL wild type],binding result,[1],binds
same,binding result,[2],binds
same,binding result,[3],binds
same,binding result,[4],binds
CUGCAAGAAACAAGUUAA (ssRNA) [SVL mutant (AAGAAA)],binding result,[3],no binding
AUGUACUAGGAGACACAAUAACGGCAAUGUUUUUAUUUGUA (ssRNA) [L3 mutant (AAUAAC)],binding result,[5],no binding
same,binding result,[6],no binding
AUGUACUAGGAGACACAAUAAAGGCAAUGUUUUUAUUUGUA (ssRNA) [L3 wild type],binding result,[7],binds
same,binding result,[8],binds
same,binding result,[9],binds
